The assay addresses TcdA^1073-1464 (fragment of the delivery and receptor-binding domain of TcdA, residues 1073-1464) (Clostridioides difficile VPI10463, UniProt P16154). Kind of assay: pull-down. The conditions noted are these: both partners purified.

Chain of TcdA^1073-1464 (fragment of the delivery and receptor-binding domain of TcdA, residues 1073-1464) (P16154 1073-1464): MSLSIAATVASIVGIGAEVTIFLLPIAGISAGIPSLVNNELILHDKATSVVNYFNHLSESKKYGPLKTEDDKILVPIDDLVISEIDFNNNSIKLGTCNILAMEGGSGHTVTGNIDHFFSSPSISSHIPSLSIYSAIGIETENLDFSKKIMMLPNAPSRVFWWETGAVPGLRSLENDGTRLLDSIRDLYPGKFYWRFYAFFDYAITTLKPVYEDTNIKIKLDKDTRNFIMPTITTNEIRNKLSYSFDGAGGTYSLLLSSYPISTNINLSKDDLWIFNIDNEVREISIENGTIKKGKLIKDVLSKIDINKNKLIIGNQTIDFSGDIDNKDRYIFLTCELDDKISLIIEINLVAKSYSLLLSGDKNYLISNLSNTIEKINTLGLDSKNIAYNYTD

B1: VHH AA6 (VHH)
VHH: QVQLVESGGGLVQPGGSLRLSCAASGFTFSDYVMTWVRQAPGKGPEWIATINTDGSTMRDDSTKGRFTISRDNAKNTLYLQMTSLKPEDTALYYCARGRVISASAIRGAVRGPGTQVTVSS
For B1, the binding result is “binds”.

For the origin of these results see article PMC9709291 (Frontiers in Immunology, 2022).
